Test results from patent US20250049970A1, “DLL3 TARGETING PEPTIDES AND CONSTRUCTS THEREOF” (MARIANA ONCOLOGY INC., priority 2023, published 2025).
Where “and” joins values, the source holds several entries; their conditions need not be identical. Equal values may be shown once. *1 amine or outer side, *2 acyl side, *3 side chain or, on linkers, in order; H or OH if unused. Where a SMILES comes first, the peptide text is derived from it. Bridges are numbered along the chain shown (N, C = ends). [ ]: non-standard residue; d: D form. The star is where a group is joined. Ala(piperidin-4-yl) = O=C([C@H](CC1CCN([*:3])CC1)N[*:1])[*:2]; DOTA = O=C(O)CN1CCN(CC(=O)O)CCN(CC(=O)*)CCN(CC(=O)O)CC1; 2Nal = N[C@@H](Cc1ccc2ccccc2c1)C(=O)O; aIle = CC[C@@H](C)[C@H](N)C(=O)O; tBuAla = CC(C)(C)C[C@H](N)C(=O)O; Chg = N[C@H](C(=O)O)C1CCCCC1

T1: DLL3 (Homo sapiens, UniProt Q9NYJ7)
T1 sequence (Q9NYJ7 27-618): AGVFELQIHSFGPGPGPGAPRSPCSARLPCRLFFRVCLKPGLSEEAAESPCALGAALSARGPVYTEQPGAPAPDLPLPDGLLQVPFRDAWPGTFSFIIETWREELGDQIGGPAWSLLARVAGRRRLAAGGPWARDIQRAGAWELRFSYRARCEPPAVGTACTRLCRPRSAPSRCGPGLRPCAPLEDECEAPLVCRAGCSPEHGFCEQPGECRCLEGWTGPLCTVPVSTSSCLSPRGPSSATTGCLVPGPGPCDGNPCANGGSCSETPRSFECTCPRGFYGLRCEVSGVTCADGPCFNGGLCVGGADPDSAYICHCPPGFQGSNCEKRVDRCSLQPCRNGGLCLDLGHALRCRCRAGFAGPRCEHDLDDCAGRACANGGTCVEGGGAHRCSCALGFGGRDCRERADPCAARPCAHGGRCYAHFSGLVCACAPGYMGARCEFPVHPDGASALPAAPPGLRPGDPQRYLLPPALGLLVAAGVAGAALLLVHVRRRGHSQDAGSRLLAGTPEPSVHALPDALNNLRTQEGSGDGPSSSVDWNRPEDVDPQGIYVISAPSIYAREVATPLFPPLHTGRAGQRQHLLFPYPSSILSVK

T2: DLL3 on SHP-77 cells (human, UniProt Q9NYJ7 27-618)
T2 construct: SHP-77 cells are human-derived, non-engineered SCLC cells
T2 sequence: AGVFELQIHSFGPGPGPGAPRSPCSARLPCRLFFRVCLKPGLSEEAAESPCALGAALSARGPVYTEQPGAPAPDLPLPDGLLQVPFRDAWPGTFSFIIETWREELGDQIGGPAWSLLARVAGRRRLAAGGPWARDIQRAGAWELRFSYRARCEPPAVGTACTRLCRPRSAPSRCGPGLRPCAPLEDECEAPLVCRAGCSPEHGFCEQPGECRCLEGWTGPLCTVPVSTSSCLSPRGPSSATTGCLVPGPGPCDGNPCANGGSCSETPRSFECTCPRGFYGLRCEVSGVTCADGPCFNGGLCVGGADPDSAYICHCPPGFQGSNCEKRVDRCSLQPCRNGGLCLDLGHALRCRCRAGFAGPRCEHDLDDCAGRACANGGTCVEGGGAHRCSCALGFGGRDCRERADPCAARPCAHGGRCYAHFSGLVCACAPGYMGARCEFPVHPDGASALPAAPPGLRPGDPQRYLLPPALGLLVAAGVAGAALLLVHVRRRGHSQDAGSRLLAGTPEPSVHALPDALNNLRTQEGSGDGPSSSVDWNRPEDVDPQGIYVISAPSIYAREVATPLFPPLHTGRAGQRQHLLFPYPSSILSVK

T3: Biotinylated target ligand human DLL3 (human, UniProt Q9NYJ7 27-492, limits assumed, biotinylated (site not stated))
T3 sequence: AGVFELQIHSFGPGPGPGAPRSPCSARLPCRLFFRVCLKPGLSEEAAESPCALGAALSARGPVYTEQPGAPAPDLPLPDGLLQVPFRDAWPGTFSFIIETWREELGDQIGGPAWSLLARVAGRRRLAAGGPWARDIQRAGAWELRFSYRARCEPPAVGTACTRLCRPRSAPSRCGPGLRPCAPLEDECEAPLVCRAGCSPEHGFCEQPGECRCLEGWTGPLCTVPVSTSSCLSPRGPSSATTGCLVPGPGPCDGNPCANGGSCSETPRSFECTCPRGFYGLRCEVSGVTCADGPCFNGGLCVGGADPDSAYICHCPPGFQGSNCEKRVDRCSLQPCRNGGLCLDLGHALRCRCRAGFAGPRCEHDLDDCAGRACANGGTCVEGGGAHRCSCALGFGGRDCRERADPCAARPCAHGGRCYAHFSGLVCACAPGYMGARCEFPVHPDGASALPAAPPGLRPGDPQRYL


Legend:
DLL3 = biological target: T1, DLL3; test: SPR binding affinity of cyclic peptides (SEQ ID NOs), SA sensor chip, Biacore S200; conditions: 25° C., 1:1 binding model
Protocol: The binding affinity and binding kinetic parameters at 25° C. were determined using Biacore S200 instrument. Target ligand was immobilized on a SA sensor chip via streptavidin capture. A reference surface was set up for nonspecific binding and refractive index changes. For analysis of the kinetics of interactions, varying concentrations of peptides were injected at a flow rate of 50 μL/minute using running buffer containing 20 mM phosphate buffer with 2.7 mM KCl, 137 mM NaCl and 0.05% Surfactant P20. Sensorgram curves were fitted with 1:1 binding model, and affinity and kinetic parameters were obtained using either Biacore S200 evaluation software 1.1.1 or Biacore Insight evaluation 4.0.

[1] = biological target: DLL3 on CT26.DLL3 cells (Homo sapiens (Human)) (UniProt Q9NYJ7); test: [177Lu]Lu-labelled peptide on CT26.DLL3 cells, 1 h 37 C, gamma counter; B = 25<%<=50
DLL3 on SHP-77 cells = biological target: T2, DLL3 on SHP-77 cells; test: [177Lu]Lu-labelled peptide on SHP-77 cells, 1 h 37 C, gamma counter; B = 25<%<=50
[2] = biological target: DLL3 on CT26.DLL3 cells (Homo sapiens (Human)) (UniProt Q9NYJ7); test: [177Lu]Lu-labelled peptide on CT26.DLL3 cells, 1 h 37 C, gamma counter; A = %<=25
[3] = biological target: T3, Biotinylated target ligand human DLL3; test: SPR, biotinylated human DLL3 on streptavidin chip; A = KD<=1.0 nM
Protocol: Biotinylated target ligand human DLL3 was immobilized on a streptavidin sensor chip. A reference surface was set up for nonspecific binding and refractive index changes. For analysis of the kinetics of interactions, varying concentrations of samples were injected at a flow rate of 100 μL/minute using running buffer containing 20 mM phosphate buffer with 2.7 mM KCl, 137 mM NaCl, 0.05% Surfactant P20 and 2% DMSO. Sensorgram curves were fitted with 1:1 binding model, and affinity and kinetic parameters were obtained using Biacore Insight evaluation 4.0. software.

Molecule | Kd (DLL3) [nM] | % Binding (DLL3 on SHP-77 cells) | % Binding [2] [%] | also measured
CSCC[C@H](NC(C)=O)C(=O)N[C@@H](Cc1c[nH]c2ccccc12)C(=O)N[C@@H](CCSC)C(=O)N[C@@H](CC(C)C)C(=O)N[C@H]1CSSC[C@@H](C(=O)N[C@@H](Cc2c[nH]c3ccccc23)C(=O)N2CCC[C@H]2C(N)=O)NC(=O)[C@H](CC(=O)O)NC(=O)[C@H](CCCCN)NC(=O)[C@H](CC(=O)O)NC(=O)[C@H](Cc2c[nH]c3ccccc23)NC(=O)[C@H](CC(=O)O)NC1=O [compound 77] (Ac-MWMLCDWDKDCWP-NH2; disulfide 5-11) | 150 | – | – | –
CC[C@H](C)[C@H](NC(=O)[C@@H](NC(=O)[C@H](Cc1c[nH]c2ccccc12)NC(=O)[C@H](CCSC)NC(C)=O)[C@@H](C)O)C(=O)N[C@H]1CSSC[C@@H](C(=O)N[C@@H](Cc2c[nH]c3ccccc23)C(=O)N2CCC[C@H]2C(N)=O)NC(=O)[C@H](CC(=O)O)NC(=O)[C@H](Cc2cnc[nH]2)NC(=O)[C@H](Cc2c[nH]c3ccccc23)NC(=O)[C@H](CC(N)=O)NC(=O)[C@@H](C)NC1=O [compound 82] (Ac-MWTIC[dA]NWHDCWP-NH2; disulfide 5-11) | 47 | – | – | –
CC[C@H](C)[C@H](NC(=O)[C@@H](NC(=O)[C@H](Cc1c[nH]c2ccccc12)NC(=O)[C@H](CCSC)NC(C)=O)[C@@H](C)O)C(=O)N[C@H]1CSSC[C@@H](C(=O)N[C@@H](Cc2c[nH]c3ccccc23)C(=O)N[C@H](C)C(N)=O)NC(=O)[C@H](CC(=O)O)NC(=O)[C@H](Cc2cnc[nH]2)NC(=O)[C@H](Cc2c[nH]c3ccccc23)NC(=O)[C@H](CC(N)=O)NC(=O)[C@H](CC(N)=O)NC1=O [compound 85] (Ac-MWTICNNWHDCW[dA]-NH2; disulfide 5-11) | 150 | – | – | –
Ac-WT[tBuAla]C[Ala(piperidin-4-yl)]N[2Nal]K(DOTA)DCWP-NH2 (disulfide 4-10; SMILES CC(=O)N[C@@H](Cc1c[nH]c2ccccc12)C(=O)N[C@H](C(=O)N[C@@H](CC(C)(C)C)C(=O)N[C@H]1CSSC[C@@H](C(=O)N[C@@H](Cc2c[nH]c3ccccc23)C(=O)N2CCC[C@H]2C(N)=O)NC(=O)[C@H](CC(=O)O)NC(=O)[C@H](CCCCNC(=O)CN2CCN(CC(=O)O)CCN(CC(=O)O)CCN(CC(=O)O)CC2)NC(=O)[C@H](Cc2ccc3ccccc3c2)NC(=O)[C@H](CC(N)=O)NC(=O)[C@H](CC2CCNCC2)NC1=O)[C@@H](C)O) [Cpd No. 314] | – | > 25% and < 50% | – | % Binding [1]: > 25% and < 50%
Ac-WT[aIle]C[Ala(piperidin-4-yl)]N[2Nal]K(DOTA)DCWP-NH2 (disulfide 4-10) [Cpd No. 303] | – | > 25% and < 50% | < 25 | Kd [3]: < 1 nM
Ac-WT[Chg]C[Ala(piperidin-4-yl)]N[2Nal]K(DOTA)DCWP-NH2 (disulfide 4-10) [Cpd No. 324] | – | > 25% and < 50% | < 25 | –
